*1 amine or outer side, *2 acyl side, *3 side chain or, on linkers, in order; H or OH if unused. Where no end group is shown, it is not given here. Side-chain parts run from the residue outwards. [ ]: non-standard residue; d: D form. The star is where a group is joined. C16 diacid = O=C(O)CCCCCCCCCCCCCCC(=O)*; γGlu = O=C(O)[C@H](CCC(=O)[*:2])N[*:1]; AEEA = NCCOCCOCC(=O)O; Aib = CC(C)(N)C(=O)O
T1: human GIP receptor (human, UniProt P48546 22-466)
T1 sequence (looked up): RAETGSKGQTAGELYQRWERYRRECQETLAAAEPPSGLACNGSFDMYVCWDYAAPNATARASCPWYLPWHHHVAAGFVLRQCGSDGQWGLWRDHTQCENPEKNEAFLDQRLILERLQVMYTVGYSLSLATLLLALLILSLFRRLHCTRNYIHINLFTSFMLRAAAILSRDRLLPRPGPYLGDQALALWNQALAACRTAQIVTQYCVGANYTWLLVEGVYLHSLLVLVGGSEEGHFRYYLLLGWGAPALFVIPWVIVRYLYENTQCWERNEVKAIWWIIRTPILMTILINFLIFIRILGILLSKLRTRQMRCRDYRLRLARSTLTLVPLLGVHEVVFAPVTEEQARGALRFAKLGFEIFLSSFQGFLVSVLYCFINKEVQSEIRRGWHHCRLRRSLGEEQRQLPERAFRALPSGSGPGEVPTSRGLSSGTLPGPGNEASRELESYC


Key:
[1] = target: T1, human GIP receptor; assay: cell-based or functional assay
[2] = target: human GLP-1 receptor (human, UniProt P43220 24-463); assay: cell-based or functional assay

Row | Molecule | hGIPR, CRE Luc 0% HSA EC50 (pM) [1] | hGIPR, CRE Luc 1% HSA EC50 (pM) [1] | hGLP-1R, CRE Luc 0% HSA EC50 (pM) [2] | hGLP-1R, CRE Luc 1% HSA EC50 (pM) [2]
1 | human GIP (from UniProt P09681 52-93) (ligand) | 11.3 pM | 6.4 pM | – | –
2 | Y[Aib]EGTFTSDYSILLEKQAAREFIEWLLAGGPSSGAPPPS-OH (not fully specified (residue 16)) [Parent compound No. 4] | 4.7 pM | 188 pM | 4.2 pM | 202 pM
3 | Y[Aib]EGTFTSDYSILLEEQAAREFIEWLLAGGPSK([AEEA-AEEA-γGlu-C16 diacid])GAPPPS-OH (N-terminus assumed; SMILES CC[C@H](C)[C@H](NC(=O)[C@H](Cc1ccccc1)NC(=O)[C@H](CCC(=O)O)NC(=O)[C@H](CCCNC(=N)N)NC(=O)[C@H](C)NC(=O)[C@H](C)NC(=O)[C@H](CCC(N)=O)NC(=O)[C@H](CCC(=O)O)NC(=O)[C@H](CCC(=O)O)NC(=O)[C@H](CC(C)C)NC(=O)[C@H](CC(C)C)NC(=O)[C@@H](NC(=O)[C@H](CO)NC(=O)[C@H](Cc1ccc(O)cc1)NC(=O)[C@H](CC(=O)O)NC(=O)[C@H](CO)NC(=O)[C@@H](NC(=O)[C@H](Cc1ccccc1)NC(=O)[C@@H](NC(=O)CNC(=O)[C@H](CCC(=O)O)NC(=O)C(C)(C)NC(=O)[C@@H](N)Cc1ccc(O)cc1)[C@@H](C)O)[C@@H](C)O)[C@@H](C)CC)C(=O)N[C@@H](CCC(=O)O)C(=O)N[C@@H](Cc1c[nH]c2ccccc12)C(=O)N[C@@H](CC(C)C)C(=O)N[C@@H](CC(C)C)C(=O)N[C@@H](C)C(=O)NCC(=O)NCC(=O)N1CCC[C@H]1C(=O)N[C@@H](CO)C(=O)N[C@@H](CCCCNC(=O)COCCOCCNC(=O)COCCOCCNC(=O)CC[C@H](NC(=O)CCCCCCCCCCCCCCC(=O)O)C(=O)O)C(=O)NCC(=O)N[C@@H](C)C(=O)N1CCC[C@H]1C(=O)N1CCC[C@H]1C(=O)N1CCC[C@H]1C(=O)N[C@@H](CO)C(=O)O) [Parent compound No. 1] | 3.1 pM | 156 pM | 2.1 pM | 154 pM
4 | Y[Aib]EGTFTSDYSILLEEQAAREFIEWLLAGGPSKGAPPPS-OH (not fully specified (residue 33)) [Parent compound No. 3] | 5.6 pM | 444 pM | 4 pM | 360 pM
5 | Y[Aib]EGTFTSDYSILLEEQAAREFIEWLLAGGPSKGAPPPS-OH (not fully specified (residue 33)) [Parent compound No. 2] | 1.8 pM | 97 pM | 1.5 pM | 111 pM
